In patent publication US20220363623A1, “IMAGING AND THERAPEUTIC COMPOSITIONS” (priority 2019, published 2022):
*1 amine or outer side, *2 acyl side, *3 side chain or, on linkers, in order; H or OH if unused. Where a SMILES comes first, the peptide text is derived from it. Bridges are numbered along the chain shown (N, C = ends). Side-chain parts run from the residue outwards. [ ]: non-standard residue; d: D form. The star is where a group is joined. X1 = O=C([C@@H](Cc1ccccc1)N(c1c(NCCCCCN(O)[*:3])c(=O)c1=O)[*:1])[*:2]; X2 = CC(=O)N(O)CCCCCNC(=O)CCC(=O)N(O)CCCCCN*; Suc = O=C(CCC(=O)[*:2])[*:1]

Key:
Set-up in all cases: species or system mice
[1] = system: LNCaP (human PSMA expressing prostate cancer cell line) tumour; details: mouse, in vivo
Method: (§1) PET-CT imaging and Biodistribution. Male Balb/c nude mice (age 8.5 weeks) or Male NSG mice (age 12 weeks) were inoculated subcutaneously on the right flank with 6×10^6 LNCap cells in PBS:Matrigel (1:1). Mice were weighed and tumours measured twice weekly using electronic callipers. Tumour volume (mm^3) was calculated as length×width×height×π/6. Mice were assigned for imaging and biodistribution studies (tumour volumes: 85-450 mm3). ^89Zr-DFOSq-PSMA tracers were then administered intravenously by tail vein injection to 6 mice. At 1, 2, 4 and 18 hr post injection three mice were anaesthetised using isoflurane and placed on the imaging bed of a G8 PET/CT scanner (Perkin Elmer). A CT scan was performed and followed immediately by a 10 min static PET scan. PET images were reconstructed using the maximal likelihood and expectation maximization (ML-EM) algorithm. PET Images were analysed using VivoQuant (Invicro) and Tumour SUVmax or Tumour SUVmax/background average (TBR) determined. After imaging at 18 hr mice were euthanised and selected tissues were excised, weighed and counted using a Capintec (Captus 4000e) gamma counter. A separate cohort of 3 mice was harvested at 1 hr post injection for biodistribution analysis as above. The data was analysed using GraphPad Prism 7 and differences between tracers analysed using a t-test.
(§2) ^89Zr Labelled tracers: The ^89Zr radiolabelled PSMA tracers were injected intravenously via tail vein to LNCaP (human PSMA expressing prostate cancer cell line) tumour bearing mice. At 1, 2, 4 and 18 h post-injection the mice were anaesthetised with isoflurane and imaged over 10 min. The representative PET images of mice injected with ^89Zr radiolabelled PSMA tracers at 1 and 18 hr are shown in FIG. 1 and quantitation of the Tumour SUVmax for each tracer is shown in FIG. 2a. […] There was a trend for higher tumour SUVmax for (4) tracer compared to all other tracers at all time points. […] A comparison of tumour uptake values is shown in FIG. 2b and the tissue biodistribution data for the tracers at 1 and 18 hr is summarised in FIG. 3.
(§3) ^68Ga Labelled tracers: Representative PET images of mice injected with ^68Ga(1) and ^68Ga(4) are shown in FIG. 4 and quantitation of the tumour SUVmax is shown in FIG. 5a. […] Tumour uptake of ^68Ga(4) was 1.6 and 1.8 fold higher than ^68Ga(1) at 1 and 2 hr p.i., respectively. This is consistent with the biodistribution results where tumour % ID/g for ^68Ga(4) was higher than ^68Ga(1) at 1 hr (10.8±1.3 vs 6.5±0.4) and at 2.5 hr (8.6±1.0 vs 4.1±0.5) p.i. […] (6.5±0.4% ID/g at 1 hr vs 4.1±0.5% ID/g at 2.5 hr). In contrast, there was no significant change in ^68Ga(4) tumour retention at 1 and 2.5 p.i. (10.8±1.3% ID/g vs […], FIG. 5b).

in vivo [2] = details: male, mouse, total radioactivity; for tissue uptake at 1 h: Tumour Uptake % ID/g 1 h pi; for tissue uptake at 18 h: Tumour Uptake % ID/g 18 h pi
Method: as §1, §2, §3

[3] = system: LNCaP (human PSMA expressing prostate cancer cell line) tumour; experiment: in vivo; details: mouse
Method: as §1, §2, §3

[4] = system: AR42J (rat pancreatic cancer cell line) tumour; experiment: in vivo; details: mouse
Method: (§4) PET-CT imaging and Biodistribution of Octreotate/tide Tracers. Female Balb/c nude mice (age 9 weeks) were inoculated subcutaneously on the right flank with 3×10^6 AR42J cells in PBS:Matrigel (1:1). Mice were weighed and tumours measured twice weekly using electronic callipers. Tumour volume (mm^3) was calculated as length^2×width/2. 12 mice were assigned for imaging and biodistribution studies (tumour volumes: 170-550 mm^3). DFOSqTIDE (2.5 MBq) and DFOSqTATE (2.2 MBq) were administered intravenously by tail vein injection to mice on. At 1, 2, 4 and 18 hr post injection three mice were anaesthetised using isoflurane and placed on the imaging bed of a G8 PET/CT scanner (Perkin Elmer). A CT scan was performed which was immediately followed by a 10 min static PET scan. PET images were reconstructed using the maximal likelihood and expectation maximization (ML-EM) algorithm. PET images were analysed using VivoQuant (Invicro) and Tumour SUVmax, Tumour SUVmax/background average (TBR) and Tumour SUVmax/liver average (TLR) determined. After imaging at 18 hr mice were euthanised and selected tissues were excised, weighed and counted using a Capintec (Captus 4000e) gamma counter. A separate cohort of 3 mice was harvested at 1 hr post injection for biodistribution analysis. The data was analysed using GraphPad Prism 7 and differences between tracers analysed using a t-test.
AR42J (rat pancreatic cancer cell line) tumour bearing Balb/c nude mice as described above were injected intravenously via tail vein injection with ^89ZrDFOSqTATE or ^89ZrDFOSqTIDE (2-3 MBq). At 1, 2, 4 and 18 h post-injection the mice were anaesthetised with isoflurane and imaged over 10 min. At 1 hr after injection of DFOSqTIDE and DFOSqTATE, uptake into kidney, tumour and liver was observed. Representative PET images of mice injected with DFOSqTIDE and DFOSqTATE are shown in FIG. 12 and quantitation of the tumour SUVmax for each radiotracer is summarised in FIG. 13a.
^68GaDFOSq-TIDE and ^68GaDFOSq-TATE tracers were injected (2-3 MBq, 1 μg, 0.5 nmol) intravenously via tail vein to AR42J (rat pancreatic cancer cell line) tumour bearing Balb/c nude mice. PET images were acquired at 1 and 2 h post-injection (FIGS. 15a and b). […] Quantification of the uptake in the images using Standard Uptake Value (SUVmax=radioactivity in a tissue/injected activity/BW) confirms the higher uptake for ^68GaDFOSq-TATE (1 h; SUVmax 1.8±0.2, compared to 1.21±0.20, FIG. 15c). The higher tumor uptake of ^68GaDFOSqTATE was also associated with a higher degree of tumor retention at 2 h post injection with only a 5% reduction in SUVmax whereas the tumor SUVmax for ^68GaDFOSqTIDE reduced by 30% ^68GaDFOSqTATE at 2 h post injection. Both tracers clear rapidly from the blood and there is low uptake in bone consistent with stable gallium-68 complexes as well as low uptake in muscle. Both tracers have significant uptake in the kidneys and bladder.

in vivo [5] = details: female, Balb/c nude, mouse, iv, total radioactivity
Method: as §4, with “t-test. The high tumor uptake was confirmed by an ex vivo biodistribution study in the same mouse model where mice were injected with either ^68GaDFOSq-TIDE and ^68GaDFOSq-TATE (2-3 MBq, 1 μg, 0.5 nmol) and then euthanised at either 1 h or 2 h after administration. The amount of injected activity per gram of tissue (% IA/g) in the tumor and major organs was quantified (FIG. 16).” for “t-test.”

SMILES | Tumour SUVmax 1 h pi [1] | tissue uptake at 1 h (in vivo [2]; iv) | tissue uptake at 18 h (in vivo [2]; iv) | Tumour SUVmax 18 h pi [1] | Tumour SUVmax Clearance % [1] | further results
CC(=O)N(O)CCCCCNC(=O)CCC(=O)N(O)CCCCCNC(=O)CCC(=O)N(O)CCCCCNc1c(NCCN(CCNC(=O)CCCC(=O)NCc2ccc(C(=O)NCCCCC(NC(=O)NC(CCC(=O)O)C(=O)O)C(=O)O)cc2)CCNC(=O)CCCC(=O)NCc2ccc(C(=O)NCCCCC(NC(=O)NC(CCC(=O)O)C(=O)O)C(=O)O)cc2)c(=O)c1=O (single isomer, unassigned) [^68Ga(4), metal not drawn] | 1.6 ± 0.10 |  |  |  |  | Gut uptake in PET images [1]: no gut uptake; Kidney uptake in PET images [1]: high kidney uptake; LNCap tumour uptake in PET images [1]: moderate tumour uptake; Tumour SUVmax 2 h pi [1]: 1.5 ± 0.09; tissue uptake at 1 h (in vivo [2]): 10.8 ± 1.26 %ID/g; tissue uptake at 2.5 h (in vivo [2]; Tumour Uptake % ID/g 2.5 h pi): 8.6 ± 0.93 %ID/g; Tumour Uptake % ID/g 1 h pi [3]: 10.8±1.3 % ID/g
CC(=O)N(O)CCCCCNC(=O)CCC(=O)N(O)CCCCCNC(=O)CCC(=O)N(O)CCCCCNc1c(NCCNC(=O)CN(CCN(CC(=O)O)CC(=O)Nc2ccc(C(=O)NCCCCC(NC(=O)NC(CCC(=O)O)C(=O)O)C(=O)O)cc2)CC(=O)O)c(=O)c1=O (centres unmarked) [(2), DFOSq-EDTA-PSMA ligand] |  | 3.2 %ID/g | 1 %ID/g |  |  | 
CC(=O)N(O)CCCCCNC(=O)CCC(=O)N(O)CCCCCNC(=O)CCC(=O)N(O)CCCCCNc1c(NCc2ccc(C(=O)NCCCCC(NC(=O)NC(CCC(=O)O)C(=O)O)C(=O)O)cc2)c(=O)c1=O (single isomer, unassigned) [^89Zr(1), metal not drawn] | 1.1 ± 0.12 | 4.6 ± 0.45 %ID/g | 1.7 ± 0.18 %ID/g | 0.4 ± 0.05 | 63% | 
CC(=O)N(O)CCCCCNC(=O)CCC(=O)N(O)CCCCCNC(=O)CCC(=O)N(O)CCCCCNc1c(NCCN(CCNC(=O)CCCC(=O)NCc2ccc(C(=O)NCCCCC(NC(=O)NC(CCC(=O)O)C(=O)O)C(=O)O)cc2)CCNC(=O)CCCC(=O)NCc2ccc(C(=O)NCCCCC(NC(=O)NC(CCC(=O)O)C(=O)O)C(=O)O)cc2)c(=O)c1=O (centres unmarked) [(4), DFOSq-bisPhPSMA ligand] |  | 9.3 %ID/g | 3.7 %ID/g |  |  | 
CC(=O)N(O)CCCCCNC(=O)CCC(=O)N(O)CCCCCNC(=O)CCC(=O)N(O)CCCCCNc1c(N[C@H](Cc2ccccc2)C(=O)N[C@H]2CSSC[C@@H](C(=O)N[C@H](C(=O)O)[C@@H](C)O)NC(=O)[C@H]([C@@H](C)O)NC(=O)[C@H](CCCCN)NC(=O)[C@@H](Cc3c[nH]c4ccccc34)NC(=O)[C@H](Cc3ccc(O)cc3)NC2=O)c(=O)c1=O [DFOSqTATE] (H-[X1]([Suc-X2])CY[dW]KTCT-OH; disulfide 2-7) |  |  |  |  |  | Tumour SUVmax Clearance % [4]: 58%; tissue uptake at 1 h (in vivo [5]; Tumour Uptake % ID/g 1 h pi): 10.4 ± 0.5 %ID/g; tissue uptake at 18 h (in vivo [5]; Tumour Uptake % ID/g 18 h pi): 4.9 ± 0.8 %ID/g
CC(=O)N(O)CCCCCNC(=O)CCC(=O)N(O)CCCCCNC(=O)CCC(=O)N(O)CCCCCNc1c(NCCN(CCNC(=O)CCCC(=O)NCc2ccc(C(=O)NCCCCC(NC(=O)NC(CCC(=O)O)C(=O)O)C(=O)O)cc2)CCNC(=O)CCCC(=O)NCc2ccc(C(=O)NCCCCC(NC(=O)NC(CCC(=O)O)C(=O)O)C(=O)O)cc2)c(=O)c1=O (single isomer, unassigned) [^89Zr(4), metal not drawn] | 3.2 ± 0.30 | 9.3 ± 0.33 %ID/g | 3.7 ± 1.07 %ID/g | 1.5 ± 0.18 | 54% | 
CC(=O)N(O)CCCCCNC(=O)CCC(=O)N(O)CCCCCNC(=O)CCC(=O)N(O)CCCCCNc1c(NCCN(CCNC(=O)CCCC(=O)NCCCCC(NC(=O)NC(CCC(=O)O)C(=O)O)C(=O)O)CCNC(=O)CCCC(=O)NCCCCC(NC(=O)NC(CCC(=O)O)C(=O)O)C(=O)O)c(=O)c1=O (single isomer, unassigned) [(3), DFOSq-bisPSMA ligand] |  | 5.9 %ID/g | 2.5 %ID/g |  |  | 
CC(=O)N(O)CCCCCNC(=O)CCC(=O)N(O)CCCCCNC(=O)CCC(=O)N(O)CCCCCNc1c(NCCNC(=O)CN(CCN(CC(=O)O)CC(=O)Nc2ccc(C(=O)NCCCCC(NC(=O)NC(CCC(=O)O)C(=O)O)C(=O)O)cc2)CC(=O)O)c(=O)c1=O (centres unmarked) [^89Zr(2), metal not drawn] | 0.7 ± 0.03 |  |  | 0.3 ± 0.01 | 57% | Tumour Uptake % ID/g 1 h pi ([3]; male, iv, 1 h): 3.2 ± 0.72 % ID/g; Tumour Uptake % ID/g 18 h pi ([3]; male, iv, 18 h): 0.9 ± 0.09 % ID/g
